In patent US20240287138A1, “CYCLIC PEPTIDES FOR INHIBITING TNF RECEPTOR 1 ACTIVITY” (Merck Sharp & Dohme LLC, priority 2023, published 2024):
Where two headings read alike, the source gives them in different places. Blank lines part the entries; values can stand above or below the binder they belong to. Numbered stars: 1 amine (or outer) side, 2 acyl side, 3 side chain; on linkers, the order of the positions; unused ones are H or OH. Bridge positions count the residues as written; N and C are the ends. Square brackets hold non-standard residues; d marks the D form. Ends that are not written are not given here. * marks the point of attachment. RbOHPhe4CONH2 = (2S,3R)-2-amino-3-(4-carbamoylphenyl)-3-hydroxypropanoic acid, NC(=O)c1ccc([C@@H](O[*:3])[C@H](N[*:1])C(=O)[*:2])cc1; bhcLeu = (1R,3S)-3-aminocyclopentane-1-carboxylic acid, O=C([C@@H]1CC[C@H](N[*:1])C1)[*:2]; Trp(βS-Me,7-OMe) = COc1cccc2c([C@H](C)[C@H](N)C(=O)O)c[nH]c12; dPro(trans-4-NMe2) = CN(C)[C@@H]1CN[C@@H](C(=O)O)C1; Trp(7-CN) = N#Cc1cccc2c(C[C@H](N)C(=O)O)c[nH]c12; Trp(7-Cl) = N[C@@H](Cc1c[nH]c2c(Cl)cccc12)C(=O)O; Biotin = O=C1N[C@H]2[C@H](CS[C@H]2CCCCC(=O)*)N1; Phe(4-COOH) = N[C@@H](Cc1ccc(C(=O)O)cc1)C(=O)O; Trp(7-aza) = N[C@@H](Cc1c[nH]c2ncccc12)C(=O)O; Pip(4-aza) = O=C(O)[C@@H]1CNCCN1; hPhe = N[C@@H](CCc1ccccc1)C(=O)O; 4Pal = N[C@@H](Cc1ccncc1)C(=O)O; NMeE = CN[C@@H](CCC(=O)O)C(=O)O; Cit = NC(=O)NCCC[C@H](N)C(=O)O; NMeS = CN[C@@H](CO)C(=O)O; αMeS = C[C@](N)(CO)C(=O)O; NMeA = CN[C@@H](C)C(=O)O; Nle = CCCC[C@H](N)C(=O)O; Pip2c = not defined here; dNMeA = CN[C@H](C)C(=O)O; AEA = NCCOCC(=O)O; Sar = CNCC(=O)O

Key:
[1] = molecular target: T1, TNFR1 on THP-1 Lucia NF-κB cells, P19438; experiment: cell-based or functional assay
T1 chain: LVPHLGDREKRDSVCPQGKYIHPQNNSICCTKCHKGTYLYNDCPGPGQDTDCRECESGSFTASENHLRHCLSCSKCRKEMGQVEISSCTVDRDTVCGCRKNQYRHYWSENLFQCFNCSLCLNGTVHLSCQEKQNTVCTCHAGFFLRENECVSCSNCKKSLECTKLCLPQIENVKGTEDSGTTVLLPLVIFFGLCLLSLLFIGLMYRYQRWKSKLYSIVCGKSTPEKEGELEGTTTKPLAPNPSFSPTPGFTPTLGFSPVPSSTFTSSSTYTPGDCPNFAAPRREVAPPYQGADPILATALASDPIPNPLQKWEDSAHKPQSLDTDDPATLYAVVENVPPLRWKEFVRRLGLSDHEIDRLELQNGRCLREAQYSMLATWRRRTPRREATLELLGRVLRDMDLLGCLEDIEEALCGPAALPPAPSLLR

[2] = molecular target: T2, Recombinant human TNFR1 extracellular domain (ECD) protein, biotinylated via C-terminal avi-tag (human); experiment: SPR, peptide analyte on captured biotinylated TNFR1 ECD
T2 chain: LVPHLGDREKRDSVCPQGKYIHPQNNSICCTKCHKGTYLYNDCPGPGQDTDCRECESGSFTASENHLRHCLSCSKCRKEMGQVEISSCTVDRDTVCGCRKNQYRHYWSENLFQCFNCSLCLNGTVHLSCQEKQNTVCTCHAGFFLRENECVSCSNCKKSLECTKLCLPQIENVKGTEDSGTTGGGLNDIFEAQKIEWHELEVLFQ

[3] = molecular target: T3, C'-terminally 6His-tagged human soluble TNFR1 (sTNFR1, residues 1-211) (human); experiment: TR-FRET displacement of biotinylated peptide SEQ ID NO. 1 from sTNFR1-6His
T3 chain: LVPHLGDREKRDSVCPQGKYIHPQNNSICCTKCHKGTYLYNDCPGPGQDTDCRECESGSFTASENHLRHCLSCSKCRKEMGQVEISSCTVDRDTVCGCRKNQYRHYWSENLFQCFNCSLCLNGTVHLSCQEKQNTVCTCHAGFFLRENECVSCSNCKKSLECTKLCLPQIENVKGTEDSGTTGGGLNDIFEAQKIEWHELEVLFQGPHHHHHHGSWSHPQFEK

[4] = molecular target: C'-terminally 6His-tagged human soluble TNFR1 (sTNFR1, residues 1-211) (human); experiment: as above; remark: listed apart in the source
[5] = molecular target: T4, TNFR1 on THP-1 Lucia NF-κB reporter cells, P19438; experiment: cell-based or functional assay
T4 chain: T1 chain

[6] = molecular target: T5, recombinant human TNFR1 extracellular domain (ECD), biotinylated via C-terminal Avi-tag, construct SEQ. ID NO. P2 (human); experiment: SPR (Cytiva 8K/8K+), peptide analyte over captured biotinylated human TNFR1 ECD
T5 chain: T2 chain

[7] = molecular target: T6, human soluble TNFR1, C-terminally 6His-tagged (sTNFR1-6His, residues 1-211), SEQ. ID NO. P1 (human); experiment: TR-FRET displacement of biotinylated peptide SEQ ID NO. 1 from sTNFR1-6His; 4-parameter fit
T6 chain: T3 chain

[8] = molecular target: T7, TNFR1 on THP-1 Lucia NF-kB reporter cells, P19438; experiment: cell-based or functional assay
T7 chain: T1 chain

[9] = molecular target: human soluble TNFR1, C-terminally 6His-tagged (sTNFR1-6His, residues 1-211), SEQ. ID NO. P1 (human); experiment: TR-FRET displacement of biotinylated peptide SEQ ID NO. 1 from sTNFR1-6His; Morrison-based 5-parameter fit

B1: SEQ ID NO. 260 (peptide)
peptide: {CH2CO}-[hPhe]YSW[NMeA]N[4Pal]W[αMeS][Phe(4-COOH)]R[Sar]WC-NH2
modifications: thioether N-14
SMILES: C[C@H]1C(=O)N[C@@H](CC(N)=O)C(=O)N[C@@H](Cc2ccncc2)C(=O)N[C@@H](Cc2c[nH]c3ccccc23)C(=O)N[C@@](C)(CO)C(=O)N[C@@H](Cc2ccc(C(=O)O)cc2)C(=O)N[C@@H](CCCNC(=N)N)C(=O)N(C)CC(=O)N[C@@H](Cc2c[nH]c3ccccc23)C(=O)N[C@H](C(N)=O)CSCC(=O)N[C@@H](CCc2ccccc2)C(=O)N[C@@H](Cc2ccc(O)cc2)C(=O)N[C@@H](CO)C(=O)N[C@@H](Cc2c[nH]c3ccccc23)C(=O)N1C
THP-1 IC50 [1]: 50.1 nM
Kd [2]: 6 nM
IC50 [3]: 10.2 nM

B2: SEQ ID NO. 256 (peptide)
peptide: {CH2CO}-KYSW[dP][Cit][4Pal]W[αMeS][Phe(4-COOH)]Y[Sar]WC-NH2
modifications: thioether N-14
SMILES: CN1CC(=O)N[C@@H](Cc2c[nH]c3ccccc23)C(=O)N[C@H](C(N)=O)CSCC(=O)N[C@@H](CCCCN)C(=O)N[C@@H](Cc2ccc(O)cc2)C(=O)N[C@@H](CO)C(=O)N[C@@H](Cc2c[nH]c3ccccc23)C(=O)N2CCC[C@@H]2C(=O)N[C@@H](CCCNC(N)=O)C(=O)N[C@@H](Cc2ccncc2)C(=O)N[C@@H](Cc2c[nH]c3ccccc23)C(=O)N[C@@](C)(CO)C(=O)N[C@@H](Cc2ccc(C(=O)O)cc2)C(=O)N[C@@H](Cc2ccc(O)cc2)C1=O
THP-1 IC50 [1]: 6.1 nM
Kd [2]: 1.4 nM
IC50 [3]: 1.84 nM

B3: SEQ ID NO. 255 (peptide)
peptide: {CH2CO}-[Nle][4Pal][Pip(4-aza)][Trp(7-aza)][NMeE]N[4Pal][Trp(7-Cl)][αMeS][Phe(4-COOH)]Y[Sar][Trp(βS-Me,7-OMe)]CGEE-NH2
modifications: thioether N-14
SMILES: CCCC[C@@H]1NC(=O)CSC[C@@H](C(=O)NCC(=O)N[C@@H](CCC(=O)O)C(=O)N[C@@H](CCC(=O)O)C(N)=O)NC(=O)[C@H]([C@@H](C)c2c[nH]c3c(OC)cccc23)NC(=O)CN(C)C(=O)[C@H](Cc2ccc(O)cc2)NC(=O)[C@H](Cc2ccc(C(=O)O)cc2)NC(=O)[C@](C)(CO)NC(=O)[C@H](Cc2c[nH]c3c(Cl)cccc23)NC(=O)[C@H](Cc2ccncc2)NC(=O)[C@H](CC(N)=O)NC(=O)[C@H](CCC(=O)O)N(C)C(=O)[C@H](Cc2c[nH]c3ncccc23)NC(=O)[C@@H]2CNCCN2C(=O)[C@H](Cc2ccncc2)NC1=O
IC50 [4]: 0.7 nM
Kd^app [4]: 1.01 nM

Binder: {CH2CO}-FYSW[Sar]NYWSYY[Sar]WCG[AEA]K(Biotin) (thioether N-14) [SEQ ID NO. 1]
THP-1 IC50 [8]: 227 nM

B6: SEQ ID NO. 242 (peptide)
peptide: {CH2CO}-KYSW[dP]Q[4Pal]W[αMeS][Phe(4-COOH)]Y[Sar]WC-NH2
modifications: thioether N-14
SMILES: CN1CC(=O)N[C@@H](Cc2c[nH]c3ccccc23)C(=O)N[C@H](C(N)=O)CSCC(=O)N[C@@H](CCCCN)C(=O)N[C@@H](Cc2ccc(O)cc2)C(=O)N[C@@H](CO)C(=O)N[C@@H](Cc2c[nH]c3ccccc23)C(=O)N2CCC[C@@H]2C(=O)N[C@@H](CCC(N)=O)C(=O)N[C@@H](Cc2ccncc2)C(=O)N[C@@H](Cc2c[nH]c3ccccc23)C(=O)N[C@@](C)(CO)C(=O)N[C@@H](Cc2ccc(C(=O)O)cc2)C(=O)N[C@@H](Cc2ccc(O)cc2)C1=O
THP-1 IC50 [1]: 3 nM
Kd [2]: 0.3 nM
IC50 [3]: 1.21 nM

The remaining lines, values ahead:

THP-1 IC50 [5]: 36.4 nM
Kd [6]: 7.43 nM
IC50 [7]: 9.87 nM
Binder: FYSWGNYWSYYGWCGEE (modifications not checked) [SEQ ID NO. 289 (Example No. 289) macrocyclic peptide]

IC50 [4]: 2.41 nM
Binder: {CH2CO}-[Nle][4Pal][Pip2c]W[dP]N[4Pal][Trp(7-Cl)][αMeS][Phe(4-COOH)]Y[dNMeA][Trp(βS-Me,7-OMe)]C-NH2 (thioether N-14; reading uncertain) [SEQ ID NO. 276]

Kd^app [9]: 0.22 nM
B4: SEQ ID NO. 287 (Example No. 287) macrocyclic peptide (peptide)
peptide: cyclo([bhcLeu][Nle][4Pal][Pip(4-aza)][Trp(7-aza)][dPro(trans-4-NMe2)]N[Phe(4-COOH)][Trp(7-CN)][αMeS][Phe(4-COOH)][RbOHPhe4CONH2][Sar][Trp(βS-Me,7-OMe)])
SMILES: CCCC[C@@H]1NC(=O)[C@@H]2CC[C@@H](C2)NC(=O)[C@H]([C@@H](C)c2c[nH]c3c(OC)cccc23)NC(=O)CN(C)C(=O)[C@H]([C@H](O)c2ccc(C(N)=O)cc2)NC(=O)[C@H](Cc2ccc(C(=O)O)cc2)NC(=O)[C@](C)(CO)NC(=O)[C@H](Cc2c[nH]c3c(C#N)cccc23)NC(=O)[C@H](Cc2ccc(C(=O)O)cc2)NC(=O)[C@H](CC(N)=O)NC(=O)[C@H]2C[C@H](N(C)C)CN2C(=O)[C@H](Cc2c[nH]c3ncccc23)NC(=O)[C@@H]2CNCCN2C(=O)[C@H](Cc2ccncc2)NC1=O

IC50 [4]: 1.49 nM
B5: SEQ ID NO. 264 (peptide)
peptide: {CH2CO}-[Nle]H[Pip2c][Trp(7-aza)][NMeE]N[4Pal][Trp(7-Cl)][αMeS][Phe(4-COOH)]Y[Sar][Trp(βS-Me,7-OMe)]C-NH2
modifications: thioether N-14; reading uncertain; also: printed as cyclo(ClAc-Nle-H-Pip2c-Trp7az-NMeE-N-4Pal-Trp7Cl-aMeS-Phe4COOH-Y-Sar-SbMeW7OMe-C)-NH2

IC50 [4]: 0.55 nM
Binder: {CH2CO}-[Nle][4Pal][NMeS]W[NMeE]N[4Pal][Trp(7-Cl)][αMeS][Phe(4-COOH)][Phe3CONH2][Sar][Trp(βS-Me,7-OMe)]C-NH2 (thioether N-14) [SEQ ID NO. 270]
